Key:
Experiment in all cases: ELISA on denatured VLP (carbonate pH 10.6 + DTT; threshold OD>0.5)
[1] = target: T1, denatured VLPs of BK polyomavirus VP-1 protein, serotype IV (BK virus (BKPyV), serotype IV, UniProt P14996 1-362)
T1 construct: also called IV denatured
T1 chain: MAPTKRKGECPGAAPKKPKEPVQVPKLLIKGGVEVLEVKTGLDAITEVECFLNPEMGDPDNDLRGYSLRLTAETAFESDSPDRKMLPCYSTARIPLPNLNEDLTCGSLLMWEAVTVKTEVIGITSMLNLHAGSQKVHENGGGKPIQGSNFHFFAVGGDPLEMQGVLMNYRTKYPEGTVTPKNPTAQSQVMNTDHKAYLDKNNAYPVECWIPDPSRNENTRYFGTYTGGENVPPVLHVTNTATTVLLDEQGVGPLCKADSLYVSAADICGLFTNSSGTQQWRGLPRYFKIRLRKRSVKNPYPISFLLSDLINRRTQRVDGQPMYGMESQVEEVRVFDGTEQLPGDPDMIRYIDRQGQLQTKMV
Procedure: (§1) The wells were then blocked for 1 hour at +37° C. with a PBS/SVF mixture. After dilution in a dilution buffer containing SVF, PBS and Tween® 20, the individual culture supernatants or purified antibodies were added for 1 hour at +37° C. The wells were washed four times in a row with Wash Buffer and a secondary anti-mouse peroxidase antibody was added to the 1/2000 dilution for 1 hour at +37° C. The wells were washed again four times in a row and the substrate was added for 30 minutes at room temperature. A stop solution was added and then each well was read by measuring the absorbance at 492 nm with a spectrophotometer. The value obtained for the average of the control wells (PBS in the first step) was subtracted from the optical density values obtained for each well (detection threshold: OD>0.5).

[2] = target: T2, denatured VLPs of BK polyomavirus VP-1 protein, serotype Ia (BK virus (BKPyV), serotype Ia, UniProt P03088 1-361)
T2 construct: also called Ia denatured; linearised VP-1 protein
T2 chain: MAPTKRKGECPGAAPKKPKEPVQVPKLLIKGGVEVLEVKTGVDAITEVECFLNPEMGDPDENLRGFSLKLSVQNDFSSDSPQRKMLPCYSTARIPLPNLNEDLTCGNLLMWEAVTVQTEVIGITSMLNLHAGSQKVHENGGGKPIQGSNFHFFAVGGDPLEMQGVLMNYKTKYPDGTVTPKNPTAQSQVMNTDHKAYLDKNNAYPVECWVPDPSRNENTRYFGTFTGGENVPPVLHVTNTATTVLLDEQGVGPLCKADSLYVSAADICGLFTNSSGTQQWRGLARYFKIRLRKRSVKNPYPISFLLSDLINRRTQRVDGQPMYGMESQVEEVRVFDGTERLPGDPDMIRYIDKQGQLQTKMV
Procedure: as §1

[3] = target: T3, denatured VLPs of BK polyomavirus VP-1 protein, serotype II (BK virus (BKPyV), serotype II, UniProt P14996 1-362)
T3 construct: also called II denatured
T3 chain: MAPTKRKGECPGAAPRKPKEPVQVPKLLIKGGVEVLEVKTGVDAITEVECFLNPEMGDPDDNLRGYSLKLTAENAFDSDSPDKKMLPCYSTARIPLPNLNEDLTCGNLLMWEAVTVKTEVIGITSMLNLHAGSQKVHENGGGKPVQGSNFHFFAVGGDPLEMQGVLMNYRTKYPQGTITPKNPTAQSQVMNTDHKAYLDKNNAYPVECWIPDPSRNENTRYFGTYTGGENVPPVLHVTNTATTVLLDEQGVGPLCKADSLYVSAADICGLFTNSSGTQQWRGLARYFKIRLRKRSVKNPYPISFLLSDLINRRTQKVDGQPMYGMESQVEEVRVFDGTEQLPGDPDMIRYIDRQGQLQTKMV
Procedure: as §1

B1: monoclonal antibody ‘18A2’ derived from hybridoma 18A2 (antibody, V domains shown)
VH: DVQLQESGPGLVKPSQSLSLTCSVTGYSITSGYYWNWIRQFPGNKLEWMGYISYDGSNNYNPSLKNRISITRDTSKNQFFLKLNSVTTEDTATYYCARWEGTTDYWGQGTTLTVSS
VL: not shown
notes: Mouse hybridoma antibody
- OD 492 nm [1]: 0.709 OD
- OD 492 nm [2]: 3.98 OD
- OD 492 nm [3]: 0.63 OD
